Measurements as given in patent publication US10208121B2, “Anti-Axl antagonistic antibodies” (BERGEN TEKNOLOGIOVERFORING AS, priority 2014, dated 2019).
“Also recorded” adds a separate entry of the source.

B1: 10C9: mouse anti-Axl monoclonal antibody from hybridoma UT-10C9-B9, IgG2b; VH SEQ ID NO: 3, VL SEQ ID NO: 4 (antibody, listed as Mus musculus, V domains shown)
VH: QVQLQQPGPELVKPGASVKISCKTSDYNFTRYYIHWVKQRPGQGLEWIGWIYPGTGDSKYNEKFKGRATLTADTSSSTAYMQLSSQTSEDSAVYFCARNGNYWYFDVWGAGTAVTVSS
VL: DIVMTQAAPSGPVTPGESVSISCRSSKSLLHSNGNTYLYWFLQRPGQSPQLLIYRMSNLASGVPDRFSGSGSGTAFTLRISRVEAEDVGIYYCMQHREYPFTFGGGTKLEIK
B2: 10G5: mouse anti-Axl monoclonal antibody from hybridoma WR-10G5-E5, IgG1; VH SEQ ID NO: 21, VL SEQ ID NO: 22 (antibody, listed as Mus musculus, V domains shown)
VH: QVQLQQSGAELVRPGASVKLSCKASGYSFTDFYINWVRQRPGQGLEWIARIFPGGDNTYYNEKFKGKATLTAEESSSTAYIQLSSLTSEDSAVYFCARRGLYYAMDYWGQGISVTVSS
VL: DVLMTQTPLSLPVSLGDQASISCRSSQSLVHSNGIPYLHWYLQKPGQSPKLLIYRVSNRFSGVPDRFSGSGSGTDFTLKISRVEAEDLGVYFCSQGTHVPPTFGGGTKLEIK
B3: c10G5: chimeric (mouse variable/human constant) IgG1 variant of antibody 10G5 (antibody)
heavy: B2 VH
light: B2 VL
modifications: left off: a dimerising Fc or GST
notes: chimeric (mouse variable/human constant) IgG1 variant of antibody 10G5

How the values were obtained:
[1] = system: cyno-Axl (Axl receptor from cynomolgus monkey); experiment: Biacore binding analysis on immobilized cyno-Axl; parameters: species or system Macaca fascicularis; settings: 10 μg/mL, 25° C.
Procedure: The sequence of Axl receptor from cynomolgus monkey (Macaca fascicularis; SEQ ID NO.43) was retrieved from WO2009062690A1. Based on the sequence, recombinant extracellular domain of cyno-Axl was generated by transient expression in CHO cells as a fusion protein with human Fc. The recombinant cyno-Axl-Fc was purified to homogeneity using Protein A-Sepharose (GE Healthcare). The binding experiments were performed using Biacore 3000 instrument (GE Healthcare) at 25° C. The soluble recombinant antigens corresponding to human Axl (rhAxl-Fc chimera; R&D Systems, Cat. no. 154-AL) and cyno-Axl were immobilized on the surface of CM5 sensor chip using amine coupling at the surface density of 775 and 880 RU, respectively. The Biacore runs were performed in an automatic mode using Binding analysis wizard.
(§1) The sample containing either MAb 10C9, MAb 10G5 or human Axl-specific MAb 5F11 (control) at concentration 10 μg/mL in HBS-EP buffer (GE Healthcare) was injected over the surfaces with immobilized antigens at flow rate of 30 μL/min for 3 min (association) followed by 5 min dissociation.

Axl^+ cells = experiment: Flow cytometry binding of hybridoma antibody clones to Axl+ cells; assay type: cell-based; settings: hybridoma clone selection
Procedure: For flow cytometry, the adherent cells in culture were washed with PBS, detached by trypsin (0.25%) treatment for 1 min and hitting culture dish for full detachment. Trypsin was quenched by adding into the tissue flask the complete medium followed by washing the cells with PBS. During the washing steps, the cells were collected by centrifugation at 200 g for 5 min. The antibody was diluted for total concentration in PBS containing 0.02% bovine serum albumin (BSA).
Cell staining was performed using 200 μL of cell suspension comprising 10^5 cells for 20 min at room temperature. After two washing steps with PBS/0.02% BSA, the cells were resuspended in 200 μL incubated with an APC-conjugated donkey anti-mouse IgG (H+L) secondary antibody (Jackson Laboratories, Cat. no. 715-136-150) at concentration 2 μg/mL for 20 min at room temperature. The stained cells were washed twice with PBS/0.02% BSA and kept on ice before analysis using a BD LSR Fortessa cell analyzer (BD Biosciences).

[2] = target: T1, mouse Axl (rmAxl-Fc chimera) (Mus musculus, UniProt Q00993); experiment: Biacore binding analysis on immobilized mouse Axl; settings: 10 μg/mL, 25° C.
T1 construct: The soluble recombinant antigens corresponding to human Axl (rhAxl-Fc chimera; R&D Systems, Cat. no; 154-AL), mouse Axl (rmAxl-Fc chimera; purchased R&D Systems 854-AX
Procedure: The binding experiments were performed using Biacore 3000 instrument (GE Healthcare) at 25° C. The soluble recombinant antigens corresponding to human Axl (rhAxl-Fc chimera; R&D Systems, Cat. no. 154-AL), mouse Axl (rmAxl-Fc chimera; R&D Systems, R&D Systems; Cat. no. 854-AX) and human Tyro3 (rhTyro3/Dtk-Fc chimera; R&D Systems, Cat. no. 859-DK) were immobilized on the surface of CM5 sensor chip using amine coupling at the surface density of 1,308.0, 2,115.9 and 1,429.0 RU, respectively. The Biacore runs were performed in an automatic mode using Binding analysis wizard.
as §1, with “recombinant mouse (rm) Axl-ligand Gas6 (R&D Systems, Cat. no. 986-GS/CF)” for “human Axl-specific MAb 5F11 (control)”

[3] = system: Axl-positive breast cancer cell line MDA-MB-231; experiment: Flow cytometry binding to Axl-positive MDA-MB-231 cells; assay type: cell-based, human; settings: different antibody concentrations, MFI
Procedure: Different concentrations of mouse and chimeric antibodies were tested in flow cytometry for binding to triple-negative breast cancer cell line MDA-MB-231. The bound mouse and chimeric antibodies were detected with APC-conjugated donkey F(ab′)2 fragments specific for either mouse IgG (H+L), 1:500 dilution, or human IgG (H+L), 1:300 dilution, respectively (both from Jackson ImmunoResearch). The cell staining was measured using Accuri C6 flow cytometer (BD Biosciences). MFI, geometric mean fluorescence intensity.
The purified chimeric antibodies (>95% purity) were analysed for binding to Axl-positive breast cancer cell line MDA-MB-231 in flow cytometry. For comparison, the parental mouse MAbs 10C9 and 10G5 were used. For flow cytometry, the adherent cells in culture were washed with PBS, detached by treatment with trypsin (0.25%) for 1 min and hitting culture dish for full detachment. Trypsin was quenched by adding into the tissue flask the complete medium followed by washing the cells with PBS. During the washing steps, the cells were collected by centrifugation at 200 g for 5 min. The antibody was diluted for total concentration in PBS containing 0.02% bovine serum albumin (BSA). Cell staining was performed using 200 μL of cell suspension comprising 10^5 cells for 20 min at room temperature. The cell-bound antibodies were detected with APC-conjugated donkey anti-human or anti-mouse, respectively, IgG (H+L) F(ab′)2 fragments (Jackson ImmunoResearch). After two washing steps with PBS/0.02% BSA, the cells were resuspended in 200 μL and kept on ice before analysis on Accuri C6 flow cytometer (BD Biosciences).

[4] = system: Gas6-mediated Axl signalling (phosphorylation of Akt on Ser^473); experiment: Gas6-induced Axl downstream signalling, Western blot of phospho-Akt (Ser^473); assay type: cell-based, human; settings: HeLa cells, 1 μg/mL antibody for 1 hr, then mouse Gas6 10 μg/mL for 20 min
Procedure: Western blot analysis illustrating inhibition of Gas6-mediated Axl signalling in the presence of mouse monoclonal antibodies 10C9 and 10G5. Phosphorylation of Akt on Ser^473 was used as surrogate readout for Axl activity. M, molecular weight markers. Immunoblots of total cell lysates were probed with anti-phospho-Akt (Ser^473), or anti-GAPDH (glyceraldehyde 3-phosphate dehydrogenase) as loading control.
The experiments were performed using human cervical cancer derived cell line HeLa (ATCC® CCL-2™). The cells were grown in T175 flasks to 80% confluency in MEM culture medium (Sigma) supplemented with 10% FBS, penicillin-streptomycin and L-glutamine. The cells were washed with PBS and detached by treatment with 0.25% Trypsin/EDTA (Sigma) followed by centrifugation and resuspension in fresh medium (MEM/0.5% FBS). The cells were seeded in Petri dishes (3×10^6 cells per dish) in MEM medium supplemented with 10% FBS. After three hrs incubation at 37° C., the cells were washed with PBS and kept in starvation medium (MEM/0.5% FBS) overnight. The cells were pre-incubated with anti-Axl antibody 10C9 or 10G5 at concentration 1 μg/mL for 1 hr followed by stimulation with Axl ligand, recombinant mouse Gas6 (R&D Systems), at concentration 10 μg/mL for 20 min. […] Detection with anti-GAPDH antibody (Millipore) was used as loading control.

Sequence of cyno-Axl (Axl receptor from cynomolgus monkey) (as listed by the source): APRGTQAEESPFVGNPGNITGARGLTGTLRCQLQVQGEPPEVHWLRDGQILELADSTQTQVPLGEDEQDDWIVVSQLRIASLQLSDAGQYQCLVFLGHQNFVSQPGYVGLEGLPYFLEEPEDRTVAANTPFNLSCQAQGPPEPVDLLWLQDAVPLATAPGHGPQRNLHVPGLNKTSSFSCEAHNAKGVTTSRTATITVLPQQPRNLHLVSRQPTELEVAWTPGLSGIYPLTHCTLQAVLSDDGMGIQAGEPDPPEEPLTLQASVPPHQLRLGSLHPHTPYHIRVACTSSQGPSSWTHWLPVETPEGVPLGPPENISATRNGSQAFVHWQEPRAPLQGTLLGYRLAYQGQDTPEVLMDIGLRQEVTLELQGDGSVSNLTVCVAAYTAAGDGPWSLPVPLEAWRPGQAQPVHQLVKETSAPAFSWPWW
T1 sequence (Q00993 19-445 limits assumed, change not shown): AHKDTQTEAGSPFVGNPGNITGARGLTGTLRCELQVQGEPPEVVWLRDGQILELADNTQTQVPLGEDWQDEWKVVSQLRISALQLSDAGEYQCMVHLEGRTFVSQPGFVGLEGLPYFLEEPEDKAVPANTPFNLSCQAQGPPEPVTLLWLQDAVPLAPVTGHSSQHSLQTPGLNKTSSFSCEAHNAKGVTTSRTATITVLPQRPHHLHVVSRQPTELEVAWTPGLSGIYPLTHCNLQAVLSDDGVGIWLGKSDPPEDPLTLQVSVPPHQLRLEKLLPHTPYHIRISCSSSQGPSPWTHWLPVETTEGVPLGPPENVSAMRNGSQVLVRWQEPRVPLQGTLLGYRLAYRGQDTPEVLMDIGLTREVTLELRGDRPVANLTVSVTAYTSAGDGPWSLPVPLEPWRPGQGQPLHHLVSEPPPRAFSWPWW

| Molecule | binding to Axl from cynomolgus monkey [1] | binding to Axl from cynomolgus monkey ([1]; listed as 1009) | binding to Axl^+ cells in flow cytometry (Axl^+ cells) | binding to mouse Axl [2] | binding to MDA-MB-231 cells in flow cytometry [3] | Gas6-induced phosphorylation of Akt on Ser^473 [4] |
| --- | --- | --- | --- | --- | --- | --- |
| B1 | strong and specific interaction | bind strongly | specific binding | no binding | Dose-dependent binding | significantly reduces; also recorded: significantly be reduced |
| B2 | bind strongly; also recorded: strong and specific interaction |  | specific binding | no binding |  |  |
| B3 |  |  |  |  | Dose-dependent binding |  |
